Series [1] deals with T1, CkSucD (Clostridium kluyveri, UniProt P38947).
T1 construct: gene sucD; His-tagged, expressed in E. coli BL21(DE3), HisTrap purified (gel filtration for crystals); homodimer
T1 sequence (P38947 1-453): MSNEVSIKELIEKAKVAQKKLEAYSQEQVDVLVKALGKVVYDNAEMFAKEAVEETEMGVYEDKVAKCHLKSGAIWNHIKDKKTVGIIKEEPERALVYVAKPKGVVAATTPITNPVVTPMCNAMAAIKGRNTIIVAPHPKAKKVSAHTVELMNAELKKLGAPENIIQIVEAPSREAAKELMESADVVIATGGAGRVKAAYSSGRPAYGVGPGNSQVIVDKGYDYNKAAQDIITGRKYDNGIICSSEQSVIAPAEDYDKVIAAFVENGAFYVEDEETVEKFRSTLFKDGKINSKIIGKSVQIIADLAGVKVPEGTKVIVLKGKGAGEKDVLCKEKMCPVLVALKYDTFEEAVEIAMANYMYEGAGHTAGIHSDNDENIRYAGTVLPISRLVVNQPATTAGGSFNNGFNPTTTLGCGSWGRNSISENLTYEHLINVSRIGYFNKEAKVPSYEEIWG
In words: X-ray crystal structure, […] Å. It is filed as binding.

Series [2] relates to CC(C)(COP(=O)(O)OP(=O)(O)OC[C@H]1O[C@@H](n2cnc3c(N)ncnc32)[C@H](O)[C@@H]1OP(=O)(O)O)[C@@H](O)C(=O)NCCC(=O)NCCSC(=O)CCCO. In words: purified protein. Particulars: 200 mM HEPES pH 7.5, 400 µM NADPH, 400 nM enzyme, 30 °C, apparent KM.
In series [3] the test system is T2, C/C(=C\C(=O)O)C(=O)SCCNC(=O)CCNC(=O)[C@H](O)C(C)(C)COP(=O)(O)OP(=O)(O)OC[C@H]1O[C@@H](n2cnc3c(N)ncnc32)[C@H](O)[C@@H]1OP(=O)(O)O.
T2 construct: His-tagged, expressed in E. coli BL21(DE3), HisTrap purified (gel filtration for crystals); homodimer
In words: purified protein. It is filed as biochemical, Clostridium kluyveri. As to conditions: 200 mM HEPES pH 7.5, 400 µM NADPH, 400 nM enzyme, 30 °C, apparent KM.

In series [4] the test system is T3, CC(C)(COP(=O)(O)OP(=O)(O)OC[C@H]1O[C@@H](n2cnc3c(N)ncnc32)[C@H](O)[C@@H]1OP(=O)(O)O)[C@@H](O)C(=O)NCCC(=O)NCCSC(=O)CCC(=O)O.
T3 construct: His-tagged, expressed in E. coli BL21(DE3), HisTrap purified (gel filtration for crystals); homodimer
In words: purified protein. In kind it is biochemical, Clostridium kluyveri. Particulars: 200 mM HEPES pH 7.5, 400 µM NADPH, 400 nM enzyme, 30 °C, apparent KM.

Substrate in series [5]: C/C(=C\C(=O)O)C(=O)SCCNC(=O)CCNC(=O)[C@H](O)C(C)(C)COP(=O)(O)OP(=O)(O)OC[C@H]1O[C@@H](n2cnc3c(N)ncnc32)[C@H](O)[C@@H]1OP(=O)(O)O
In words: purified protein. It is filed as biochemical, Clostridioides difficile. As to conditions: 200 mM HEPES pH 7.5, 400 µM NADPH, 30 °C, apparent KM.

Substrate in series [6]: CC(C)(COP(=O)(O)OP(=O)(O)OC[C@H]1O[C@@H](n2cnc3c(N)ncnc32)[C@H](O)[C@@H]1OP(=O)(O)O)[C@@H](O)C(=O)NCCC(=O)NCCSC(=O)CCC(=O)O
In words: purified protein. As to conditions: 200 mM HEPES pH 7.5, 400 µM NADPH, 30 °C, apparent KM. It is filed as biochemical, Clostridioides difficile.

Substrate in series [7]: C/C(=C\C(=O)O)C(=O)SCCNC(=O)CCNC(=O)[C@H](O)C(C)(C)COP(=O)(O)OP(=O)(O)OC[C@H]1O[C@@H](n2cnc3c(N)ncnc32)[C@H](O)[C@@H]1OP(=O)(O)O
In words: purified protein. Particulars: 200 mM HEPES pH 7.5, 400 µM NADPH, 400 nM enzyme, 30 °C, apparent KM.

Substrate in series [8]: C/C(=C\C(=O)SCCNC(=O)CCNC(=O)[C@H](O)C(C)(C)COP(=O)(O)OP(=O)(O)OC[C@H]1O[C@@H](n2cnc3c(N)ncnc32)[C@H](O)[C@@H]1OP(=O)(O)O)C(=O)O
The experiment in a line: purified protein. Particulars: 200 mM HEPES pH 7.5, 400 µM NADPH, 400 nM enzyme, 30 °C, apparent KM.

Substrate in series [9]: C/C=C/C(=O)SCCNC(=O)CCNC(=O)[C@H](O)C(C)(C)COP(=O)(O)OP(=O)(O)OC[C@H]1O[C@@H](n2cnc3c(N)ncnc32)[C@H](O)[C@@H]1OP(=O)(O)O
The experiment in a line: purified protein. Particulars: 200 mM HEPES pH 7.5, 400 µM NADPH, 400 nM enzyme, 30 °C, apparent KM.

Substrate in series [10]: CC(C)(COP(=O)(O)OP(=O)(O)OC[C@H]1O[C@@H](n2cnc3c(N)ncnc32)[C@H](O)[C@@H]1OP(=O)(O)O)[C@@H](O)C(=O)NCCC(=O)NCCSC(=O)CCC(=O)O
The experiment in a line: purified protein. Particulars: 200 mM HEPES pH 7.5, 400 µM NADPH, 400 nM enzyme, 30 °C, apparent KM.

Substrate in series [11]: CCC(=O)SCCNC(=O)CCNC(=O)[C@H](O)C(C)(C)COP(=O)(O)OP(=O)(O)OC[C@H]1O[C@@H](n2cnc3c(N)ncnc32)[C@H](O)[C@@H]1OP(=O)(O)O
The experiment in a line: purified protein. Particulars: 200 mM HEPES pH 7.5, 400 µM NADPH, 400 nM enzyme, 30 °C, apparent KM.

Series [12] deals with the molecule itself. In words: crystal structure; X-ray structures of CkSucD without ligands (8CEI), with NADPH (8CEK) and with mesaconyl-C1-CoA (8CEJ); sitting-drop vapor diffusion at 288 K.

With `NC(=O)C1=CN([C@@H]2O[C@H](COP(=O)(O)OP(=O)(O)OC[C@H]3O[C@@H](n4cnc5c(N)ncnc54)[C@H](OP(=O)(O)O)[C@@H]3O)[C@@H](O)[C@H]2O)C=CC1` [NADPH], the “X-ray crystal structure, 2.1 Å” value in series [1] (5 mM NADPH, pH 6.5 (abstract calls the ligand NADP+)) is 8CEK (with NADPH).

In the case of CkSucD (Clostridium kluyveri DSM 555), in [2], the Km (as a rule, the concentration of substrate that gives half-maximal velocity) is reported as 48.9 ± 10.8 µM; the kcat (in general, the number of substrate molecules converted per active site and unit of time at saturation) worked out at 0.2 ± 0.01 s⁻¹.

Consider `C/C(=C\C(=O)O)C(=O)SCCNC(=O)CCNC(=O)[C@H](O)C(C)(C)COP(=O)(O)OP(=O)(O)OC[C@H]1O[C@@H](n2cnc3c(N)ncnc32)[C@H](O)[C@@H]1OP(=O)(O)O` [mesaconyl-C1-CoA], for which, in series [1] (5 mM ligand, pH 7.5, active site, intact ligand in chain C, covalent mesaconyl-Cys242 in chains A, B, D), the “X-ray crystal structure, 2.1 Å” value is “mesaconyl-C1 CoA bound state (pdb 8CEJ”.

Turning to “CkSucD (Clostridium kluyveri DSM 555; K70R)”, in series [3], the Km was determined as 86.1 ± 15.1 µM and the kcat came to 0.1 ± 0.01 s⁻¹. Also, in series [4], the Michaelis constant (Km) stood at 19.9 ± 2.3 µM and the kcat worked out at 0.9 ± 0.03 s⁻¹.

B1: CdSucD (Clostridioides difficile R20291) (protein)
chain: MEKAVENFEDLSKEYINGYIERARKAQREFECYTQEQVDKIVKIVGKVVYYNAEYLAKLAVEETGMGVYEDKVAKNKSKAKVIYNNLKDKKSVGIIDIDRETGITKVAKPVGVVAAITPCTNPIVTPMSNAMFALKGRNAIIITPHHKAIGCSTKTVEMINEELEKIGAPENLIQILDQQSRENTRNLISSADVVIATGGMGMVKAAYSSGKPALGVGAGNVQCIIDRDVDIKEAVPKIIAGRIFDNGIICSGEQSVIVAEEMFDKIMDEFKNNKGFIVRDKVQKEAFRNAMFVNKSMNKDAVGQSVHTIAKIAGVEIPEDTKIIVIEADGPGEEDIIAKEKMCPVISAYKYKSFEEGVAIAKANLNVEGKGHSVSIHSNTVKNIEYAGENIEVSRFVINQCCATSAGGSFFNGLAPTNTLGCGSWGNNSISENLDYKHLINISRIAYYMPENEVPTDEELWG
notes: His-tagged, expressed in E. coli BL21(DE3), HisTrap purified
On to B1, for which, in series [5], the Km was found to be 38.3 ± 14.9 µM and the kcat was determined as 0.65 ± 0.08 s⁻¹. In addition, in series [6], the Km was determined as 213.8 ± 49.4 µM and the kcat worked out at 28.7 ± 4.1 s⁻¹.

B2: Succinyl-CoA reductase (SucD) from Clostridium kluyveri (enzyme)
chain: MSNEVSIKELIEKAKVAQKKLEAYSQEQVDVLVKALGKVVYDNAEMFAKEAVEETEMGVYEDKVAKCHLKSGAIWNHIKDKKTVGIIKEEPERALVYVAKPKGVVAATTPITNPVVTPMCNAMAAIKGRNTIIVAPHPKAKKVSAHTVELMNAELKKLGAPENIIQIVEAPSREAAKELMESADVVIATGGAGRVKAAYSSGRPAYGVGPGNSQVIVDKGYDYNKAAQDIITGRKYDNGIICSSEQSVIAPAEDYDKVIAAFVENGAFYVEDEETVEKFRSTLFKDGKINSKIIGKSVQIIADLAGVKVPEGTKVIVLKGKGAGEKDVLCKEKMCPVLVALKYDTFEEAVEIAMANYMYEGAGHTAGIHSDNDENIRYAGTVLPISRLVVNQPATTAGGSFNNGFNPTTTLGCGSWGRNSISENLTYEHLINVSRIGYFNKEAKVPSYEEIWG
notes: Succinyl-CoA reductase (SucD) of Clostridium kluyveri, UniProt P38947; In PDB 8CEJ Cys242 carries a mesaconyl-cysteine intermediate in subunits A, B and D; also called CkSucD; source: E. coli BL21 DE3, purified (HisTrap FF, desalting, size exclusion chromatography on Superdex 200)
As for B2, the Km in series [7] worked out at 28.5 ± 4.7 µM; in [8], 25.7 ± 6.8 µM; in [9], 332.6 ± 54.8 µM; in [10], 22.6 ± 4.9 µM; in [11], 145.2 ± 144 µM. Moreover, the turnover number (kcat) in series [7] was determined as 1.6 ± 0.07 s⁻¹; in series [8], 0.2 ± 0.02 s⁻¹; in [9], 0.3 ± 0.03 s⁻¹; in series [10], 7.8 ± 0.43 s⁻¹; in series [11], 0.1 ± 0.04 s⁻¹. In addition, the stoichiometry N (commonly the number of molecules, sites or subunits per partner or assembly) in series [12] came to 2.

The values above are taken from paper PMC10249356 (Biochemistry, 2023).
